Laboratory results: publication PMC2706497

Substrate: NCCCCc1ccccc1
Test: steady-state kinetics
Type: biochemical, Homo sapiens
Conditions: FAD (covalent)

B1: MAO-B (Homo sapiens) (protein)
chain: SNKCDVVVVGGGISGMAAAKLLHDSGLNVVVLEARDRVGGRTYTLRNQKVKYVDLGGSYVGPTQNRILRLAKELGLETYKVNEVERLIHHVKGKSYPFRGPFPPVWNPITYLDHNNFWRTMDDMGREIPSDAPWKAPLAEEWDNMTMKELLDKLCWTESAKQLATLFVNLCVTAETHEVSALWFLWYVKQCGGTTRIISTTNGGQERKFVGGSGQVSERIMDLLGDRVKLERPVIYIDQTRENVLVETLNHEMYEAKYVISAIPPTLGMKIHFNPPLPMMRNQMITRVPLGSVIKCIVYYKEPFWRKKDYCGTMIIDGEEAPVAYTLDDTKPEGNYAAIMGFILAHKARKLARLTKEERLKKLCELYAKVLGSLEALEPVHYEEKNWCEEQYSGGCYTTYFPPGILTQYGRVLRQPVDRIYFAGTETATHWSGYMEGAVEAGERAAREILHAMGKIPEDEIWQSEPESVDVPAQPITTTFLERHLPSVPGLLRLIGLTTIFSATALGFLAHKRGLLVRV
- Km: 19 ± 3 µM
